Results published in IntAct's records for PubMed 31515488.

B1: KAT8 regulatory NSL complex subunit 1 (Homo sapiens), Q7Z3B3 (parent)
chain: MAAMAPALTDAAAEAHHIRFKLAPPSSTLSPGSAENNGNANILIAANGTKRKAIAAEDPSLDFRNNPTKEDLGKLQPLVASYLCSDVTSVPSKESLKLQGVFSKQTVLKSHPLLSQSYELRAELLGRQPVLEFSLENLRTMNTSGQTALPQAPVNGLAKKLTKSSTHSDHDNSTSLNGGKRALTSSALHGGEMGGSESGDLKGGMTNCTLPHRSLDVEHTTLYSNNSTANKSSVNSMEQPALQGSSRLSPGTDSSSNLGGVKLEGKKSPLSSILFSALDSDTRITALLRRQADIESRARRLQKRLQVVQAKQVERHIQHQLGGFLEKTLSKLPNLESLRPRSQLMLTRKAEAALRKAASETTTSEGLSNFLKSNSISEELERFTASGIANLRCSEQAFDSDVTDSSSGGESDIEEEELTRADPEQRHVPLRRRSEWKWAADRAAIVSRWNWLQAHVSDLEYRIRQQTDIYKQIRANKGLIVLGEVPPPEHTTDLFLPLSSEVKTDHGTDKLIESVSQPLENHGAPIIGHISESLSTKSCGALRPVNGVINTLQPVLADHIPGDSSDAEEQLHKKQRLNLVSSSSDGTCVAARTRPVLSCKKRRLVRPNSIVPLSKKVHRNSTIRPGCDVNPSCALCGSGSINTMPPEIHYEAPLLERLSQLDSCVHPVLAFPDDVPTSLHFQSMLKSQWQNKPFDKIKPPKKLSLKHRAPMPGSLPDSARKDRHKLVSSFLTTAKLSHHQTRPDRTHRQHLDDVGAVPMVERVTAPKAERLLNPPPPVHDPNHSKMRLRDHSSERSEVLKHHTDMSSSSYLAATHHPPHSPLVRQLSTSSDSPAPASSSSQVTASTSQQPVRRRRGESSFDINNIVIPMSVAATTRVEKLQYKEILTPSWREVDLQSLKGSPDEENEEIEDLSDAAFAALHAKCEEMERARWLWTTSVPPQRRGSRSYRSSDGRTTPQLGSANPSTPQPASPDVSSSHSLSEYSHGQSPRSPISPELHSAPLTPVARDTPRHLASEDTRCSTPELGLDEQSVQPWERRTFPLAHSPQAECEDQLDAQERAARCTRRTSGSKTGRETEAAPTSPPIVPLKSRHLVAAATAQRPTHR
partner: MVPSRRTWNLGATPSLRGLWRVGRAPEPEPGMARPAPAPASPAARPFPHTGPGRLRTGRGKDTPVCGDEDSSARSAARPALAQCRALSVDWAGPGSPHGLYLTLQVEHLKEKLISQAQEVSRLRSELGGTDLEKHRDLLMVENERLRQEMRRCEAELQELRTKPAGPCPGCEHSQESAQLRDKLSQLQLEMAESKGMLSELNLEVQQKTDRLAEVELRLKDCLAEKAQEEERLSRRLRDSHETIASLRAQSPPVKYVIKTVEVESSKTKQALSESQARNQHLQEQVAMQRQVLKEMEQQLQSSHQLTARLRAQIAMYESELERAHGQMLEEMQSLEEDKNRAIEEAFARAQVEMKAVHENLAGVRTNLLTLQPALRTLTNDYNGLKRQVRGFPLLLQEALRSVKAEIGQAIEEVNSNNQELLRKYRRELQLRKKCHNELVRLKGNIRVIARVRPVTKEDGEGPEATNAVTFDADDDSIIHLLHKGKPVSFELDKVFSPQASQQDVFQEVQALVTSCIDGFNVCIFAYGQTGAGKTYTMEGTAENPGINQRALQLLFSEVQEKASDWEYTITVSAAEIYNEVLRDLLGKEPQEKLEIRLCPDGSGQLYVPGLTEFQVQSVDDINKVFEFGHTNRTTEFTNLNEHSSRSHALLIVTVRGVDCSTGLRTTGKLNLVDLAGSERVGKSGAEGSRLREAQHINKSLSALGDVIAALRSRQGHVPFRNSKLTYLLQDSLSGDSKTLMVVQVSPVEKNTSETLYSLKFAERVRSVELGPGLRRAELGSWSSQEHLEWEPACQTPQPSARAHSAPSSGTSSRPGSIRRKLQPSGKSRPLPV
B2: Dystrobrevin beta (Homo sapiens), O60941 (parent)
chain: MIEESGNKRKTMAEKRQLFIEMRAQNFDVIRLSTYRTACKLRFVQKRCNLHLVDIWNMIEAFRDNGLNTLDHTTEISVSRLETVISSIYYQLNKRLPSTHQISVEQSISLLLNFMIAAYDSEGRGKLTVFSVKAMLATMCGGKMLDKLRYVFSQMSDSNGLMIFSKFDQFLKEVLKLPTAVFEGPSFGYTEHSVRTCFPQQRKIMLNMFLDTMMADPPPQCLVWLPLMHRLAHVENVFHPVECSYCRCESMMGFRYRCQQCHNYQLCQNCFWRGHAGGPHSNQHQMKEHSSWKSPAKKLSHAISKSLGCVPTREPPHPVFPEQPEKPLDLAHIVPPRPLTNMNDTMVSHMSSGVPTPTKRLQYSQDIPSHLADEHALIASYVARLQHCARVLDSPSRLDEEHRLIARYAARLAAEAGNVTRPPTDLSFNFDANKQQRQLIAELENKNREILQEIQRLRLEHEQASQPTPEKAQQNPTLLAELRLLRQRKDELEQRMSALQESRRELMVQLEELMKLLKEEEQKQAAQATGSPHTSPTHGGGRPMPMPVRSTSAGSTPTHCPQDSLSGVGGDVQEAFAQGTRRNLRNDLLVAADSITNTMSSLVKELHSAEEGAEEEEEKMQNGKDRG
partner: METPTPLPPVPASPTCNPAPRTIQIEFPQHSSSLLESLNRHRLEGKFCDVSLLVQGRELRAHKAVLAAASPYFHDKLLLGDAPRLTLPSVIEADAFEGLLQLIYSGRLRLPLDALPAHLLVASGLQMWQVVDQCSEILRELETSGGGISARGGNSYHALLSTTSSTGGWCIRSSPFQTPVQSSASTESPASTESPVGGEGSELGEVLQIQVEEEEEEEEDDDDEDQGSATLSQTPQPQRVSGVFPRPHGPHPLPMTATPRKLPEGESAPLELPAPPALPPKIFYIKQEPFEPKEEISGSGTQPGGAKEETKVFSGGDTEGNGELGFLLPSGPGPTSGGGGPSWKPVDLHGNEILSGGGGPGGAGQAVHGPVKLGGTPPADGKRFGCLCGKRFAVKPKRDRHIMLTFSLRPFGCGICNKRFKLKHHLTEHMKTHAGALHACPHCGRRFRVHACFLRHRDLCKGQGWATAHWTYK
B3: Actin filament-associated protein 1-like 1 (Homo sapiens), Q8TED9 (parent)
chain: MDRGQVLEQLLPELTGLLSLLDHEYLSDTTLEKKMAVASILQSLQPLPAKEVSYLYVNTADLHSGPSFVESLFEEFDCDLSDLRDMPEDDGEPSKGASPELAKSPRLRNAADLPPPLPNKPPPEDYYEEALPLGPGKSPEYISSHNGCSPSHSIVDGYYEDADSSYPATRVNGELKSSYNDSDAMSSSYESYDEEEEEGKSPQPRHQWPSEEASMHLVRECRICAFLLRKKRFGQWAKQLTVIREDQLLCYKSSKDRQPHLRLALDTCSIIYVPKDSRHKRHELRFTQGATEVLVLALQSREQAEEWLKVIREVSKPVGGAEGVEVPRSPVLLCKLDLDKRLSQEKQTSDSDSVGVGDNCSTLGRRETCDHGKGKKSSLAELKGSMSRAAGRKITRIIGFSKKKTLADDLQTSSTEEEVPCCGYLNVLVNQGWKERWCRLKCNTLYFHKDHMDLRTHVNAIALQGCEVAPGFGPRHPFAFRILRNRQEVAILEASCSEDMGRWLGLLLVEMGSRVTPEALHYDYVDVETLTSIVSAGRNSFLYARSCQNQWPEPRVYDDVPYEKMQDEEPERPTGAQVKRHASSCSEKSHRVDPQVKVKRHASSANQYKYGKNRAEEDARRYLVEKEKLEKEKETIRTELIALRQEKRELKEAIRSSPGAKLKALEEAVATLEAQCRAKEERRIDLELKLVAVKERLQQSLAGGPALGLSVSSKPKSGETANKPQNSVPEQPLPVNCVSELRKRSPSIVASNQGRVLQKAKEWEMKKT
partner: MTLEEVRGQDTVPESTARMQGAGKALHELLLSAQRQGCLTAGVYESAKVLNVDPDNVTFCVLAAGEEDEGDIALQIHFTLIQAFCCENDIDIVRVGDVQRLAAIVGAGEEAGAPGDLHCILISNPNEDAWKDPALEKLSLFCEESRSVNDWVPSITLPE
B4: Protein BANP (Homo sapiens), Q8N9N5-2 (parent)
chain: MMSEHDLADVVQIAVEDLSPDHPVVLENHVVTDEDEPALKRQRLEINCQDPSIKSFLYSINQTICLRLDSIEAKLQALEATCKSLEEKLDLVTNKQHSPIQVPMVAGSPLGATQTCNKVRCAVPGRRQNTIVVKVPGQEDSHHEDGESGSEASDSVSSCGQAGSQSIGSNVTLITLNSEEDYPNGTWLGDENNPEMRVRCAIIPSDMLHISTNCRTAEKMALTLLDYLFHREVQAVSNLSGQGKHGKKQLDPLTIYGIRCHLFYKFGITESDWYRIKQSIDSKCRTAWRRKQRGQSLAVKSFSRRTPNSSSYCPSEPMMSTPPPASELPQPQPQPQALHYALANAQQVQIHQIGEDGQVQVIPQGHLHIAQVPQGEQVQITQDSEGNLQIHHVGQDGQVLQGAQLIAVASSDPAAAGVDGSPLQGSDIQVQYVQLAPVSDHTAGAQTAEALQPTLQPEMQLEHGAIQIQ
partner: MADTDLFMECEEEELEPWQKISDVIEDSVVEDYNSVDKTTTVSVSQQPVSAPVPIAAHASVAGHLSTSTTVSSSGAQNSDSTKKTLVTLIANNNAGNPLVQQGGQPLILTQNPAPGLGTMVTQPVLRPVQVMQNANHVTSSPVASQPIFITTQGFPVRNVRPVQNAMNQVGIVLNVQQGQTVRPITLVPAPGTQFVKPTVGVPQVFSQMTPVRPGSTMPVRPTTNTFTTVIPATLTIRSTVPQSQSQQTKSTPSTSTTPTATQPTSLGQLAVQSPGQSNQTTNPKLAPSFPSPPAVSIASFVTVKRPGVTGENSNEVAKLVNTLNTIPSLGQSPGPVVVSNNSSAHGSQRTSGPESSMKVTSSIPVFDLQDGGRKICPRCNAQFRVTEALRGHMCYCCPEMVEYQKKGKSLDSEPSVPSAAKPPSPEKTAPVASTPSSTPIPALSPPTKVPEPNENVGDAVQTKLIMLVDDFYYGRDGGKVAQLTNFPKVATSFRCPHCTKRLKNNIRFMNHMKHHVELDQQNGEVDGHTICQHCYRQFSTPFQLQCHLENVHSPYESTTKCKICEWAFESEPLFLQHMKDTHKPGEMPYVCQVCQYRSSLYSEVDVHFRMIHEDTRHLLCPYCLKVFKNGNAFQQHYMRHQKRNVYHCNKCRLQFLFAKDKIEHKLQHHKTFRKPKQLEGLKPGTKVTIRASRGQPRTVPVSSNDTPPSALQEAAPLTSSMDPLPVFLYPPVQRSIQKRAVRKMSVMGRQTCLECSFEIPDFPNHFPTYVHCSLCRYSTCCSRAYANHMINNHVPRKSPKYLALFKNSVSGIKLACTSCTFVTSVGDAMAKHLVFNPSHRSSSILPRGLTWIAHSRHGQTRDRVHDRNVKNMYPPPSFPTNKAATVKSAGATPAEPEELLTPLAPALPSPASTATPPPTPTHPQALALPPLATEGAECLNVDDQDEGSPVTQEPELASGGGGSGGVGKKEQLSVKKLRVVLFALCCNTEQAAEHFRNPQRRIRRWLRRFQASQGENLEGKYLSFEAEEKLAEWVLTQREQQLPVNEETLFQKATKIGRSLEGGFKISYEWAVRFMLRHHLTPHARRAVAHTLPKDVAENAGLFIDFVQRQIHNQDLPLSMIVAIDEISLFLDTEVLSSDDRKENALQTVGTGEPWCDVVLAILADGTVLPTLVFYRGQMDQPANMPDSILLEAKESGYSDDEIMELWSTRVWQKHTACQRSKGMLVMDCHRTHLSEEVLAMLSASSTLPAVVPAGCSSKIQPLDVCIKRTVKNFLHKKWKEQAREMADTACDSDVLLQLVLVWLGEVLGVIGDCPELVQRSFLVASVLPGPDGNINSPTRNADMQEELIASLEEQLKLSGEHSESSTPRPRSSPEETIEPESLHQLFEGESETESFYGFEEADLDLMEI
B5: Dendritic cell nuclear protein 1 (Homo sapiens), Q8TF63 (parent)
chain: MHYGAATHIQNSRSHGLETVPGHQRLERGAGGETPEFPGCHSPAPPENFGNELLPLSAPLQGLSEGLYPPGRNKTLPAGVLREGAVQFLHRGLCNSNLSSEASARPSGTQDELHSSRRKTGQTRREGARKHLVCSFRLYPFTVHTVSPGNSHLALYQVFKAVKLCPSETSFFLSRKSLKSSDPWHPPSLSPNSWNRQAGFRAWSSHLISLSLTCSDSQSRRVSSSQQPPLHSLSSHRRAAHVPE

Variants of: B1
Details: with kifc3_human KIFC3, Q9BVG8

Variant	effect of a mutation on the interaction
K104T	disrupting interaction strength

Variants of: B2
Details: with zbtb9_human ZBTB9, Q96C00

Variant	effect of a mutation on the interaction
R80H	with no effect

Variants of: B3
Details: with ga45g_human GADD45G

Variant	effect of a mutation on the interaction
S98N	with no effect

Variants of: B4
Details: with pogz_human POGZ

Variant	effect of a mutation on the interaction
A162V	with no effect

Variants of: B5
Details: with mdfi_human MDFI

Variant	effect of a mutation on the interaction
P183T	with no effect
